Results on four molecules are retold here after EP2261242A1, “Aspartate-N-acetyltransferase enzyme, diagnostic method and therapeutic method” (UNIVERSITE CATHOLIQUE DE LOUVAIN, priority 2009, dated 2010).

Read-outs that look alike come from different tables or passages of the source.

One data set deals with T1, mouse NAT8L (Mus musculus, UniProt Q3UGX3).
T1 construct: expressed in transfected cells; host or cells: HEK 293T cells (pCMV5 vector); washed 16 000 x g membrane pellets of frozen-thawed extracts
T1 sequence (Q3UGX3 1-299): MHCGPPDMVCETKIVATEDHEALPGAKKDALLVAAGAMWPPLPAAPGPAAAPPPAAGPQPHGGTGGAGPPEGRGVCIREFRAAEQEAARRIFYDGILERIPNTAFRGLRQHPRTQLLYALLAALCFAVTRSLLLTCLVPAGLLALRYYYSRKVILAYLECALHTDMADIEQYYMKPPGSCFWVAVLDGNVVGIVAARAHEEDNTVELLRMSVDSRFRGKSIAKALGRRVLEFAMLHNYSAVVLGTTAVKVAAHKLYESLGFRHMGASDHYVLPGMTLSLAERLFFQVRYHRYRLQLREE
Briefly: Radiochemical Asp-NAT activity assay on washed membrane pellets of HEK cells transfected with untagged mouse NAT8L. The format is biochemical. The protocol: After 20-40 min at 30°C, the reaction was arrested by a 5-min incubation at 80°C and 1 ml of 5 mM Hepes, pH 7.1 was added. The sample was centrifuged and the supernatant was applied on a 1-ml Dowex AG1X8 column (Cl^- form, 100-200 mesh, from Acros Organics) prepared in a Pasteur capillary pipette. […] Radioactivity was counted in the presence of Ultima Gold™ (Perkin Elmer) in a liquid scintillation counter. The kinetic studies shown in Figure 3 were performed using washed pellets, obtained by centrifuging extracts for 20 min at 16 000 x g, resuspending them in the initial volume of extraction buffer, recentrifugation and resuspension in the original volume of extraction buffer.
The Asp-NAT activity was further characterized in extracts of cells expressing wild-type mouse NAT8L. […] The kinetic studies were therefore performed on washed pellets, to eliminate soluble, potentially interfering enzymes. […] The KM values amounted to ≈ 9 and 13 µM in the presence of 0.5 and 1 mM CHAPS, respectively.

Substrate in data set [1]: NC(CCC(=O)O)C(=O)O
Briefly: purified protein, by the assay type. Particulars: other: glutamate as substrate (not shown); pH 7.1.

Substrate in data set [2]: CC(=O)SCCNC(=O)CCNC(=O)[C@H](O)C(C)(C)COP(=O)(O)OP(=O)(O)OC[C@H]1O[C@@H](n2cnc3c(N)ncnc32)[C@H](O)[C@@H]1OP(=O)(O)O
The data set can be described thus: purified protein, by the assay type. Particulars: other: 20 µM aspartate, pH 7.1.

Substrate in data set [3]: N[C@@H](CC(=O)O)C(=O)O
Briefly: purified protein, by the assay type. The following applies: other: substrate saturation curve; same in absence and presence of 0.5 mM CHAPS; pH 7.1.

Regarding `C[C@H](CCC(=O)NCCC[N+](C)(C)CCCS(=O)(=O)[O-])[C@H]1CC[C@H]2[C@@H]3[C@H](O)C[C@@H]4C[C@H](O)CC[C@]4(C)[C@H]3C[C@H](O)[C@]12C` [CHAPS], the “increase of Vmax” value at mouse NAT8L (0.5 mM CHAPS, saturation curve for aspartate) was “≈ 30%”. For orientation: Ki means the equilibrium dissociation constant of an inhibitor or competing ligand from its target. Low values mean a stronger hold on the target, high ones a looser hold on the target. Turning to `CC(=O)N[C@@H](CC(=O)O)C(=O)O` [NAA, N-acetylaspartate], the Ki on mouse NAT8L (inhibition of incorporation of [^14C]-aspartate into NAA, competitive with respect to aspartate, 200 µM acetyl-CoA, 0.5 mM CHAPS, variable aspartate) was 0.56 mM. `N[C@@H](CCC(=O)O)C(=O)O` [glutamate]: the Ki on mouse NAT8L was approximately 6 mM.

B1: mouse NAT8L (Mus musculus) (protein)
chain: T1 sequence (Q3UGX3 1-299)
As usually defined, the Km is the substrate concentration at which the rate is half of its maximum. In the case of B1, the Km in data set [1] was 5000 µM; in data set [2] (in the presence of 0.5 mM CHAPS), 9 µM; in data set [2] (in the presence of 1 mM CHAPS), 13 µM; in data set [3] it was 90 µM.
